In patent publication EP4613763A1 (Chuang, Woei-jer, dated 2025):
Where a chain is given by its changes, count along the chain named.

B1: protein C7 (designed binder)
chain: VSDVPRDLEVVAATPTSLLISWRHPHFPTRYYRITYGETGGNSPVQEFTVPLQPPTATISGLKPGVDYTITVYAVTDGRNGRLLSIPISINYRT
B2: C7-LL2-His (designed binder, not shown: small tags and cut ends)
chain: B1 chain with S17C, S60C
modifications: Designed disulfide bond between Cys17 and Cys60.
notes: His-tagged C7 variant with one introduced disulfide bond
B3: C7-LL3-His (designed binder, not shown: small tags and cut ends)
chain: B1 chain with T39C, D67C
modifications: Designed disulfide bond between Cys39 and Cys67.
notes: as for B2
B4: C7-LL4-His (designed binder, not shown: small tags and cut ends)
chain: B1 chain with K63C, V66C
modifications: Designed disulfide bond between Cys63 and Cys66.
notes: as for B2
B5: C7-SL1-His (designed binder, not shown: small tags and cut ends)
chain: B1 chain with L8C, S89C
modifications: Designed disulfide bond between Cys8 and Cys89.
notes: as for B2
B6: C7-SL1-LL2-His (designed binder, not shown: small tags and cut ends)
chain: B1 chain with L8C, S17C, S60C, S89C
modifications: Designed disulfide bonds Cys8-Cys89 and Cys17-Cys60.
notes: His-tagged C7 variant with two introduced disulfide bonds
B7: C7-SL1-LL3-His (designed binder, not shown: small tags and cut ends)
chain: B1 chain with L8C, T39C, D67C, S89C
modifications: Designed disulfide bonds Cys8-Cys89 and Cys39-Cys67.
notes: as for B6
B8: C7-SL2-His (designed binder)
chain: B1 chain with T35C, V45C
modifications: Designed intramolecular disulfide bond Cys35-Cys45 (printed as T36/V46 in the Met-included numbering).
notes: His-tagged C7 variant with one introduced disulfide bond; not shown: N-terminal Met and C-terminal His tag of the expressed construct
B9: C7-SL3-His (designed binder)
chain: B1 chain with G37C, V45C
modifications: Designed intramolecular disulfide bond Cys37-Cys45 (printed as G38/V46 in the Met-included numbering).
notes: as for B8
B10: C7-SL4-His (designed binder, not shown: small tags and cut ends)
chain: B1 chain with D67C, N91C
modifications: Designed disulfide bond between Cys67 and Cys91.
notes: as for B2
B11: C7-SS1-His (designed binder, not shown: small tags and cut ends)
chain: B1 chain with L19C, T58C
modifications: Designed disulfide bond between Cys19 and Cys58.
notes: as for B2

What follows are binders tested against T1, vascular endothelial growth factor receptor 2 (UniProt P35968 20-764, limits assumed) (assay: ELISA, binding affinity to VEGFR2).
T1 construct: also called VEGFR2; kinase insert domain receptor
T1 sequence (P35968 20-764 limits assumed): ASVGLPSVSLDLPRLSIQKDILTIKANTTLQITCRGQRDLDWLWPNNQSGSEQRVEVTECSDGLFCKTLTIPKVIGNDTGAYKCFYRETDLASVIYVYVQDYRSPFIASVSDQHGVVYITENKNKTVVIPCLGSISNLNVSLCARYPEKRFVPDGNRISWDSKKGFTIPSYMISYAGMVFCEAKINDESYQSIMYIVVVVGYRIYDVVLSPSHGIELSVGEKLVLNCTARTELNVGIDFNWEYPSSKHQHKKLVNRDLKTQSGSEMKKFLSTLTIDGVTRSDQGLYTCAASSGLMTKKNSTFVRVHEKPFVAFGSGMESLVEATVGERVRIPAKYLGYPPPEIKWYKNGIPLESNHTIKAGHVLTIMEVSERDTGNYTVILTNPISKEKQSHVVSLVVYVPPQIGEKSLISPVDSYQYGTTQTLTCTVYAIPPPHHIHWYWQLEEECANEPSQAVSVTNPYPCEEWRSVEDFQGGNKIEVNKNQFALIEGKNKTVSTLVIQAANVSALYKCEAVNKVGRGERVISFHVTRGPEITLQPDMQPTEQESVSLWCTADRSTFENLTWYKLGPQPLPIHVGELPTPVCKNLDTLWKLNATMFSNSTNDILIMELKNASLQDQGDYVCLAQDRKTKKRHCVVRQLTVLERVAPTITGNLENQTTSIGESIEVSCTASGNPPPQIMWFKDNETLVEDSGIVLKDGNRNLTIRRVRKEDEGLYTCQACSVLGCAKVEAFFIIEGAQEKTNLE
B1 gave an IC50 of 16.8 nM. Binder B2 has an IC50 of 18.9 nM. B3 was tested, and the IC50 was 9.8 nM. In the case of B4, the IC50 is reported as 16.6 nM. Work on B5 yielded an IC50 of 17.6 nM. In the case of B6, the IC50 is reported as 12.8 nM. For B7, the IC50 was 19.2 nM. Binder B8 has an IC50 of 17.1 nM. B9 gave an IC50 of 21.3 nM. Binder B10 has an IC50 of 18.5 nM. With B11 the IC50 was 17.5 nM.
